Measurements as given in the supplement of paper PMC10567573.

B1: NP_009172.2 (parent)
chain: LPALFTDLYSQEITAEEAREALP
B2: ZNF8 (parent)
chain: KPYTCSVCGKSFSRTTCLFLHLRT

Variants of: B1
Test: protein stability index of a GFP-peptide fusion (GPS, HEK-293T) (PSI 1-6); higher = more stable
Conditions: c terminus: native

Protein stability index, by site and new letter:
R19: H 2.82, L 2.47, Q 2.75, G 2.96, D 3, T 2.9, F 2.68, C 2.93, M 2.59, S 2.89, K 2.79, W 2.56, P 2.93, N 2.71, A 2.75, E 2.81, I 2.45, Y 2.53, V 2.8
A15: R 2.36, S 2.67, P 3.05, Y 2.72, N 2.66, W 2.68, V 2.78, K 2.56, L 2.53, M 2.51, T 3.05, Q 2.84
E16: Y 2.51, S 2.86, G 2.9, F 2.89, K 2.97, L 2.73, T 2.62, Q 2.64, C 2.51, V 2.48, M 2.58, P 3.16, H 2.75, R 2.68, W 2.48, I 2.99, D 2.75, N 2.81, A 2.76
A21: L 2.26, S 2.7, T 2.85, P 2.69, H 2.29, N 2.6, W 2.19, F 2.31, G 2.81, K 2.46, M 2.23, Q 2.46, E 3.6, Y 2.3, R 2.02, V 2.16, C 2.46, I 2.4, D 3.67
L22: Q 3.01, D 4.62, P 3.63, H 3.44, K 4.93, W 2.67, T 3.44, N 4.7, F 3.49, A 3.54, R 4.15, I 2.37, C 2.65, E 2.69, G 2.88, Y 3.49, V 3.17, S 3.59, M 2.44
E17: I 2.4, F 2.38, A 2.39, L 2.16, P 2.73, G 2.21, S 2.33, V 2.43, T 2.3, C 2.24, K 2.18, R 1.87, D 2.71, Q 2.83, Y 2.32, H 2.2, M 2.22, W 2.4, N 2.5
P23: A 4.14, M 2.27, Q 4.85, L 4.01, W 3, Y 3.49, S 4.8, T 4.6, E 5, D 5.15, R 2.83, G 4.69, V 4.18, K 4.82, N 4.89, C 4.21, H 4.15, I 3.59, F 3.94
E20: V 2.6, P 2.86, S 2.28, C 2.38, A 2.41, I 2.32, F 2.43, K 2.42, L 2.51, D 2.65, W 2.42, M 2.39, H 2.27, Q 2.22, G 2.11, Y 3.08, N 2.2, R 1.98
A18: G 2.95, Q 2.86, R 2.45, T 3.04, N 2.75, L 2.51, K 2.26, W 2.67, M 2.75, S 2.72, E 2.83, C 2.91, Y 2.35, I 2.57, P 3.08, V 2.71, D 3.24, H 2.42, F 2.73

Variants of: B2
Test: as above
Conditions: c terminus: a fixed tail appended

Protein stability index, by site and new letter:
K1: D 2.46, A 2.74, E 2.19, C 2.08
